Experimental findings from patent publication US20220064329A1 (Novo Nordisk, published 2022) are described below.

Common to all, as to assay: SPR, Biacore T200, 25 C; FVII(a) variant captured on anti-Gla Ab 4F6, mAb0842(OA) injected
For one assay, the target named is T1, FVII(a) variant R113A (human, UniProt P08709 61-466).
T1 construct: hFVII alanine variant in cell culture supernatant
T1 sequence: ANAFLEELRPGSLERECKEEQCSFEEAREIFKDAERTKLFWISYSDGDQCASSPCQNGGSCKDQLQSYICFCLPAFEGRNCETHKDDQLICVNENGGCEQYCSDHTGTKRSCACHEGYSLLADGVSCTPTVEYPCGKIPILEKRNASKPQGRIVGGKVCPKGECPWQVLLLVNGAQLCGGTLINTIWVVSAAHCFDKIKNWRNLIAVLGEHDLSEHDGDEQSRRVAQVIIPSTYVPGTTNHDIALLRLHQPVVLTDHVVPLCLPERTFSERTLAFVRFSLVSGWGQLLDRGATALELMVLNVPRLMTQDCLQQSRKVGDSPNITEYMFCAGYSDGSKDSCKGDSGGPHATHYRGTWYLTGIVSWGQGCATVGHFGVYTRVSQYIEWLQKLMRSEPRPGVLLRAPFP
As to the method:
(§1) The running buffer was prepared by diluting 10-fold the 10×HBS-P buffer (supplied by GE Healthcare) and supplemented with 1 mg/ml BSA and 5 mM CaCl2 to give 10 mM HEPES, 150 mM NaCl, 0.05% v/v Polysorbate 20, pH 7.4, 5 mM CaCl2, 1 mg/ml bovine serum albumin (BSA). […] Regeneration of the chip was achieved using 10 mM HEPES, 150 mM NaCl, 20 mM EDTA, 0.05 v/v Polysorbate 20, pH 7.4. Binding data were analysed according to a 1:1 Kinetic model and steady state analysis using BiaEvaluation 4.1 supplied by the manufacturer (Biacore AB, Uppsala, Sweden). Wherever possible, ka, kd and KD values from 1:1 kinetic fitting model are reported. […] An amino acid residue is considered a hot-spot residue if substitution of that amino acid residue with alanine results in an affinity reduction of ten (10) fold or more relative to the wild type.

Another assay concerns the target T2, FVII(a) variant R392A (human, UniProt P08709 61-466).
T2 construct: hFVII alanine variant in cell culture supernatant
T2 sequence: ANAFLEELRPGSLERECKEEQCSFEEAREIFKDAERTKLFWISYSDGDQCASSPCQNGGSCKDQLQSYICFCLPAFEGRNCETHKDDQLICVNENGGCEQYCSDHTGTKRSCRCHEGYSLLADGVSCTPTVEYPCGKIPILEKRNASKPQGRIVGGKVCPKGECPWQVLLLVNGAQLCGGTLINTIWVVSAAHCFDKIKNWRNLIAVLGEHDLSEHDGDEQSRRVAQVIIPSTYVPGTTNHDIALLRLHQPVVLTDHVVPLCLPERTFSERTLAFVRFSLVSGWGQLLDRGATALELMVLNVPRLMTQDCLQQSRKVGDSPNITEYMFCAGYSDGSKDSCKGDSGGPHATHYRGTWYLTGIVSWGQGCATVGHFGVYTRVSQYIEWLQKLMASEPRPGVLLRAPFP
How it is done:
as §1

For another assay, the target named is T3, FVII(a) variant G117A (human, UniProt P08709 61-466).
T3 construct: hFVII alanine variant in cell culture supernatant
T3 sequence: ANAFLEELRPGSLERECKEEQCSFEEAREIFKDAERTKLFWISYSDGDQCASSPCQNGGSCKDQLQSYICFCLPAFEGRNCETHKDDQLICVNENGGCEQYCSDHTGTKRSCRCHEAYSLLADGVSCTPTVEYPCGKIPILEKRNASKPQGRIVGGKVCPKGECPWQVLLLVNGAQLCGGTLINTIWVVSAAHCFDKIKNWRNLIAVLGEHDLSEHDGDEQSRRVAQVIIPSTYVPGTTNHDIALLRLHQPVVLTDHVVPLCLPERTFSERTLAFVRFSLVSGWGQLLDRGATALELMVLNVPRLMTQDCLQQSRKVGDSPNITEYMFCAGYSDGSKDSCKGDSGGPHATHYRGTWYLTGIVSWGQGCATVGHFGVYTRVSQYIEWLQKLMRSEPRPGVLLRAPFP
As to the method:
as §1

In another assay the target is T4, FVII(a) variant V131A (human, UniProt P08709 61-466).
T4 construct: hFVII alanine variant in cell culture supernatant
T4 sequence: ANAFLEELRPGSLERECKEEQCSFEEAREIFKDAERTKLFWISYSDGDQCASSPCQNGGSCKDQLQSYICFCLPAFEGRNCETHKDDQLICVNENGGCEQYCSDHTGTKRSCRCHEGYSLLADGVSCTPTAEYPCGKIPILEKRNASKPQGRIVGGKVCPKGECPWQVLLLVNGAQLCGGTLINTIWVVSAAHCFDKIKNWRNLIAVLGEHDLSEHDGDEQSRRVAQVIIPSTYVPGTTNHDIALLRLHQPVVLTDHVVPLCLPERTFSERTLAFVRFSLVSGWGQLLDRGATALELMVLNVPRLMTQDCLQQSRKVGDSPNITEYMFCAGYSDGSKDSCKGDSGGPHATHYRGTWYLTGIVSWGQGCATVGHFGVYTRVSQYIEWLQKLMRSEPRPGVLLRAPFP
How it is done:
as §1

Another assay deals with T5, FVII(a) variant T130A (human, UniProt P08709 61-466).
T5 construct: hFVII alanine variant in cell culture supernatant
T5 sequence: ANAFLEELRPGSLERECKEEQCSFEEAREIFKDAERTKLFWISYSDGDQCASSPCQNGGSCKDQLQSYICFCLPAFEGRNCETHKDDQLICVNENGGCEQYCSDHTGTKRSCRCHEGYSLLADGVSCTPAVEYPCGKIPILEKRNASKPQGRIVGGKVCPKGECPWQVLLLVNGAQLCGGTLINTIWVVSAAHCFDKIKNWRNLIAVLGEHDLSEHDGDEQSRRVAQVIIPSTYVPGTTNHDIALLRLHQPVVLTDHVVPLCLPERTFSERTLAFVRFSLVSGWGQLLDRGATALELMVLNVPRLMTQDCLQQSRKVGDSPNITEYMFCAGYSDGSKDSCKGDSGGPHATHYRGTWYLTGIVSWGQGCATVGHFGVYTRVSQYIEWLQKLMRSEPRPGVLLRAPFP
As to the method:
as §1

B1: mAb0842(OA) (antibody, human IgG4 S228P, kappa)
heavy: QVQLQESGPGLVKPSQTLSLTCTVSGYSISSDSAWSWIRQPPGKGLEWIGYIQYSGSTNYNPSLKSRVTISRDTSKNQFSLKLSSVTAADTAVYYCARSVNYYGNSFAVGYWGQGTLVTVSSASTKGPSVFPLAPCSRSTSESTAALGCLVKDYFPEPVTVSWNSGALTSGVHTFPAVLQSSGLYSLSSVVTVPSSSLGTKTYTCNVDHKPSNTKVDKRVESKYGPPCPPCPAPEFLGGPSVFLFPPKPKDTLMISRTPEVTCVVVDVSQEDPEVQFNWYVDGVEVHNAKTKPREEQFNSTYRVVSVLTVLHQDWLNGKEYKCKVSNKGLPSSIEKTISKAKGQPREPQVYTLPPSQEEMTKNQVSLSCAVKGFYPSDIAVEWESNGQPENNYKTTPPVLDSDGSFFLVSRLTVDKSRWQEGNVFSCSVMHEALHNHYTQKSLSLSLGK
light: EIVLTQSPATLSLSPGERATLSCRASQGISDYLHWYQQKPGEAPRLLIKYTSQPATGIPARFSGSGSGTDFTLTISSLEPEDFAVYYCQNGHSFPLTFGQGTKLEIKRTVAAPSVFIFPPSDEQLKSGTASVVCLLNNFYPREAKVQWKVDNALQSGNSQESVTEQDSKDSTYSLSSTLTLSKADYEKHKVYACEVTHQGLSSPVTKSFNRGEC
chain: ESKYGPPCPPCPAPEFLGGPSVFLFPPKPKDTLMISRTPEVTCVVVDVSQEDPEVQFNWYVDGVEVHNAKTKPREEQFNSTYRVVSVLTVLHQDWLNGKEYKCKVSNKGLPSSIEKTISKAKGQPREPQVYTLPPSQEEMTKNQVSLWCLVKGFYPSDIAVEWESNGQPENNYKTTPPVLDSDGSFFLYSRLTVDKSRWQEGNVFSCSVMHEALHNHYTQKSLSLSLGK
notes: also called monovalent humanized 11F2 antibody; one-armed anti-FVII(a) antibody
Regarding B1, the Kd with FVII(a) variant R113A is 0.29 nM; with FVII(a) variant R392A, 43.4 nM; with FVII(a) variant G117A, 0.31 nM; with FVII(a) variant V131A, 5.22 nM; with FVII(a) variant T130A it was 32.1 nM.

The term Kd denotes the concentration at which binding is half-saturated.
